Series [1] has as its target T1, cell surface ATP synthase (Homo sapiens, UniProt P06576).
T1 construct: endogenous in cells; host or cells: HepG2
Put plainly: Cell surface ADP generation assay (ATP hydrolysis), HPLC/TLC. Format: cell-based. The note with it: 10 μg/ml apoA-I, 10 min at 37° C., HepG2. The procedure:
(§1) ^32Pi and ADP (panels A and B) or [α-32P] ATP (panels C, D, E and F) are added to the HepG2 cell medium as described in Experimental Procedures, and the cells are incubated for 10 min at 37° C. with 10 μg/ml apoA-I (panels B and D), 100 nM IF1 (panel E), or both IF1 […] and apoA-I at the same concentrations as above (panel F). Control experiments are performed with neither apo AI nor IF1 added into the cell medium (panel A and C). Supernatants are recovered and analysed by HPLCs.
(§2) Confluent HepG2 in 6-well plates are washed in DMEM, then incubated at 37° C. for 10 min in DMEM pH 6.6 with 0.1 μCi [α-32P] ATP for ADP generation assay, or with 0.1 μCi 32Pi and ADP (100 nM final) for ATP generation assay. Depending on the experiment, IF1 (100 nM final) or apoA-I (10 μg/ml final) are added in the reaction mixture. Supernatants are removed and analysed using two different systems: 1) by HPLC coupled to a radioactivity detector on a Whatman Partisphere 5 SAX column (Whatman International Ltd., UK) as described previously (13); calibration is done with radiolabelled nucleotides. 2) by thin layer chromatography in the solvent NaCl 2.4%/NH4OH/H2O/MeOH (12.5/15/27.5/50, v/v); radioactive spots are counted by liquid scintillation.

Series [2] has as its system HepG2 cells and IHH. Put plainly: Cholesterol efflux. The note with it: free-apoA-I. In kind it is cell-based, human.
For series [3], the target named is T1, cell surface ATP synthase. As to the kind of experiment: Cell surface ATP generation assay (ATP synthesis), HPLC/TLC. The note with it: 10 μg/ml free-apoA-I, 10 min, HepG2. Format: cell-based. The procedure: as §1, §2
The target of series [4] is T2, β-subunit of ATP synthase (Homo sapiens, UniProt P06576).
T2 construct: endogenous in cells; host or cells: HepG2 (ATCC)
T2 sequence (P06576 48-529): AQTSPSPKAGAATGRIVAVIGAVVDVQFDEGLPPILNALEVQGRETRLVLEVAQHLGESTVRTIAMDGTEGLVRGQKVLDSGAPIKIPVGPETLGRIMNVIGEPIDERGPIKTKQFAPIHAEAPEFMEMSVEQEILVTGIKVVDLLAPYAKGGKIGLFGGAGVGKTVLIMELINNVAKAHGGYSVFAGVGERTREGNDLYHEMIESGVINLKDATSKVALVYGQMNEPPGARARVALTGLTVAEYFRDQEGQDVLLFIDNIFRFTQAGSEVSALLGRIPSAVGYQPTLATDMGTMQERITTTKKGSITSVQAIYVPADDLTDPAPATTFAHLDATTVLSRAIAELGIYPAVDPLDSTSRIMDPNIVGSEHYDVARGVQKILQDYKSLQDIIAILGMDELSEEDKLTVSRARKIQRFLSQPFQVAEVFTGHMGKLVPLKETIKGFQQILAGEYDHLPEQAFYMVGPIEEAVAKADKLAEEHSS
T2 sequence (P25705 44-553 partner): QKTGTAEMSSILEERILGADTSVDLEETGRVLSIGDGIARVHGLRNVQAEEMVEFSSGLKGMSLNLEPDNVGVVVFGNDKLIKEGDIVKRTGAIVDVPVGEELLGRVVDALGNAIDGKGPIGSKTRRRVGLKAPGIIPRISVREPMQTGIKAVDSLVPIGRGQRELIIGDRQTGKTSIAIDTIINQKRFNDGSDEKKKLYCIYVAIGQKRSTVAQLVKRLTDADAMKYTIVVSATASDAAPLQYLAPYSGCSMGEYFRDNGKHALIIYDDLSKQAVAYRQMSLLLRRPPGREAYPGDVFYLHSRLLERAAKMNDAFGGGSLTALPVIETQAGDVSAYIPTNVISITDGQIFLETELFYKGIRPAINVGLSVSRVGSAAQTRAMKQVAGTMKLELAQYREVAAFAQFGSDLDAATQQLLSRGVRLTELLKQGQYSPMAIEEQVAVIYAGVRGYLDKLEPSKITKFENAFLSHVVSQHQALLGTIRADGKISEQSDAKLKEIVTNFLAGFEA
T2 sequence (P36542 26-298 partner): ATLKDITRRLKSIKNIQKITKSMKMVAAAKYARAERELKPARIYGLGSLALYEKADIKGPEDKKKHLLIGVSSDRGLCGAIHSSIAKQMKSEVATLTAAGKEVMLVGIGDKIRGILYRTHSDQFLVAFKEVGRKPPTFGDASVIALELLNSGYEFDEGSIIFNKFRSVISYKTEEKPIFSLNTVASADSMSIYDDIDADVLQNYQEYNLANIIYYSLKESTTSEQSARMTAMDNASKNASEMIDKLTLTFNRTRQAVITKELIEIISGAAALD
T2 sequence (P30049 23-168 partner): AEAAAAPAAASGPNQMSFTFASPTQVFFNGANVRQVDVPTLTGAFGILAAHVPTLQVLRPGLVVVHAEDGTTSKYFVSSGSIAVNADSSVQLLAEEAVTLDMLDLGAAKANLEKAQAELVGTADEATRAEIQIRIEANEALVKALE
T2 sequence (P56381 2-51 partner limits assumed): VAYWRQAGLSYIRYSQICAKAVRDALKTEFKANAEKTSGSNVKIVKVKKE
As to the kind of experiment: Flow cytometry detection of cell surface β-subunit of ATP synthase. To be noted: excess of free-apoA-I (100 nM), HepG2 cells. In kind it is cell-based. The procedure: HepG2 and CHO cells were analyzed by fluorescence-assisted flow cytometry. Plots are shown for HepG2 (panel A) and CHO (panel C) where solid lines represent cells incubated with an anti b-subunit of ATP synthase mouse monoclonal IgG2a in absence (e) or presence (d) of 100 nM apoA-I, 250 μg/ml of FI-ATPase (c) or incubated with an isotypic control mouse IgG2a (a) and […] anti cytochrome oxidase subunit I mouse monoclonal IgG2a (b, dashed lines). In panel B and D, the histograms are expressed as the mean relative fluorescence of the curves a to e on HepG2 (B) or CHO cells (D).
For analysis of the cell surface EGF receptor, HepG2 cells are preincubated in medium with or without 20 nM EGF for 10 min at 37° C. For flow cytometry analysis, HepG2 and CHO cells are detached by incubation with Ca2+, Mg2+free PBS containing 2 mM EDTA, pH 7.4, fixed in 3% paraformaldehyde and pelleted in a microfuge. Cells are incubated at 20° C. for 1 h in PBS, pH 7.4 containing 1% BSA with either mouse monoclonal antibodies against the human β-subunit of ATP synthase, the human cytochrome oxidase subunit I, the human EGF receptor or against isotypic control IgG. […] The mean relative fluorescence after excitation at a wavelength of 488 nm is determined for each sample on a Coulter XL 4C flow cytometer and analysed with CELLQUEST software (Becton-Dickenson).

T1 sequence (P06576 48-529): as the sequence (P06576 48-529) above
T1 sequence (P25705 44-553 partner): as the sequence (P25705 44-553 partner) above
T1 sequence (P36542 26-298 partner): as the sequence (P36542 26-298 partner) above
T1 sequence (P30049 23-168 partner): as the sequence (P30049 23-168 partner) above
T1 sequence (P56381 2-51 partner limits assumed): as the sequence (P56381 2-51 partner limits assumed) above

With “free-apoA-I: major apoprotein of HDL, single polypeptide chain of 243 amino acid residues, isolated from HDL3 by ion-exchange chromatography”, the “increase of [α32P]-ADP generated from [α-32P]-ATP” value in series [1] is listed as “up to 79%”. Further, the “stimulation of the cholesterol efflux” value in series [2] was 2 to 2.5 fold. Further, the “ATP synthesis from ADP plus 32Pi” value in series [3] was “no synthesis of ATP is detected”. Further, the “reduction of immunoreactivity of the anti β-subunit antibody” value in series [4] is listed as “more than 3 fold”.

The values are drawn from patent US20040072368A1, “Lipoprotein receptor” (priority 2002, published 2004).
